The results in this text go back to patent US20110256153A1 (IMMUNOGEN, published 2011).

Residue numbers refer to the chain shown, from its start. Where “and” joins values, the source holds several entries; their conditions need not be identical. Equal entries are not always repeated.

The target in test [1] is T1, human CD37 (human, UniProt P11049 1-278).
T1 construct: Tetraspanin antigen; Expressed on 300-19 cells transfected with pSRa-CD37 (entire CDS) or endogenous on WSU-DLCL-2, BJAB and Ramos lymphoma cells; also called CD37 antigen; human CD37 wildtype
T1 sequence: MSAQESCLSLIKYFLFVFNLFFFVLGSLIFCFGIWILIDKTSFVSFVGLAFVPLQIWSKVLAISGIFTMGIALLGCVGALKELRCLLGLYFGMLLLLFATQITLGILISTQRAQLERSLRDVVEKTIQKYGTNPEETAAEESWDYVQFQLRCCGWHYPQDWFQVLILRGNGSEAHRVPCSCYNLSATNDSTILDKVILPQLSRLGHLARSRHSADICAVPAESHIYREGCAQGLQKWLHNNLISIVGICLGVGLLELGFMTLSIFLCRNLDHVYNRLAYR
Kind of test: flow cytometry titration; apparent Kd; cells not named.

In test [2] the target is T1, human CD37. Kind of test: cell-based or functional assay.
For test [3], the target named is T1, human CD37. Kind of test: flow cytometry titration on BJAB cells; apparent Kd. As to the method: (§1) Binding specificity was tested by flow cytometry using purified antibodies. […] All murine antibodies were incubated for 3 h with either CD37-expressing 300-19 cells or the non-transfected 300-19 cells (1×10⁵ cells per sample) in 100 μL FACS buffer (RPMI-1640 medium supplemented with 2% normal goat serum). Then, the cells were pelleted, washed, and incubated for 1 h with 100 μL of FITC-conjugated goat anti-mouse IgG-antibody (Jackson Laboratory, 6 μg/mL in FACS buffer). The cells were pelleted again, washed with FACS buffer and resuspended in 200 μL of PBS containing 1% formaldehyde. Samples were acquired using a FACSCalibur flow cytometer with the HTS multiwell sampler or a FACS array flow cytometer and analyzed using CellQuest Pro (all from BD Biosciences, San Diego, US).
The humanized antibodies huCD37-38, huCD37-50, huCD37-51, huCD37-56 and chCD37-57 were assayed for their binding affinity to BJAB cells in comparison to their murine counterparts. Flow cytometry binding assays were carried out using secondary FITC-conjugated goat-anti-murine and -anti-human antibodies, analyzed as described in Example 2 and dose-response curves were generated by non-linear regression for each antibody. The value for the apparent dissociation constant (Kd) of each antibody was calculated using GraphPad Prism v4 (GraphPad software, San Diego, Calif.).

Test [4] has as its target T2, macaque CD37 (macaque, UniProt P11049 1-277 (human entry)).
T2 construct: Expressed on 300-19 cells transfected with pSRa-CD37mac (300-19/CD37mac cells); also called macaca CD37; macaque derived CD37 antigen
T2 chain: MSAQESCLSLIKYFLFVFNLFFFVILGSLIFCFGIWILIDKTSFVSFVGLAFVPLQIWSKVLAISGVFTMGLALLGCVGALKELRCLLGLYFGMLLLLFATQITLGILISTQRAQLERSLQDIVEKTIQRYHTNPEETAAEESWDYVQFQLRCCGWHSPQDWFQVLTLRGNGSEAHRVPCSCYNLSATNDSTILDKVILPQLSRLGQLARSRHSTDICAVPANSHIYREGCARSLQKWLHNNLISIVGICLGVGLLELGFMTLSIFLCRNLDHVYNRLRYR
Kind of test: flow cytometry titration on 300-19/CD37mac cells; apparent Kd. Here is the method:
as §1
Flow cytometry binding assays were carried out using secondary FITC-conjugated goat-anti-human antibodies, analyzed as described in Example 2 and dose-response curves were generated by non-linear regression for each antibody. The value for the apparent dissociation constant (Kd) of each antibody was calculated using GraphPad Prism v4 (GraphPad software, San Diego, Calif.).

B1: huCD37-56-SMCC-DM1 (antibody, human IgG1, kappa, V domains shown)
VH: QVQLQESGPGLVKPSQSLSLTCTVSGYSITSGFAWHWIRQFPGKGLEWMGYIHYSGGTNYNPSLKSRVSITRDTSKNQFFLQLNSVTAADTATYYCARGYYGFGAWFAYWGQGTLVPVSA
VL: DIVLTQSPAFMSASPGEKVTMTCSASSSVTYMHWYQQKPDQSPKRWIYDTSNLASGVPSRFSGGGSGTDYSLTISSMEAEDAATYYCQQWISDPPTFGQGTKLEIKR
modifications: DM1 attached through SMCC linker; attachment residues and load not stated
notes: SMCC-DM1 conjugate of huCD37-56
For the molecule B1, the Kd in test [1] was determined as 340 pM. The “EC50 of in vitro cytotoxicity, WST-8 assay, Daudi cells” value (from here on “EC50 … WST-8 assay, Daudi cells”) in test [2] turned out to be 310 pM.

B2: huCD37-56 (antibody, human IgG1, kappa, V domains shown)
VH: B1 VH
VL: B1 VL
notes: Humanized antibody
With B2, the Kd in test [3] was 200 pM; in test [4], 5000 pM; in test [1] it was 300 pM.

B3: huCD37-3-PEG4-mal-DM1 (antibody, human IgG1, kappa, V domains shown)
VH: QVQVQESGPGLVAPSQTLSITCTVSGFSLTTSGVSWVRQPPGKGLEWLGVIWGDGSTNYHPSLKSRLSIKKDHSKSQVFLKLNSLTAADTATYYCAKGGYSLAHWGQGTLVTVSS
VL: DIQMTQSPSSLSVSVGERVTITCRASENIRSNLAWYQQKPGKSPKLLVNVATNLADGVPSRFSGSGSGTDYSLKINSLQPEDFGTYYCQHYWGTTWTFGQGTKLEIKR
modifications: DM1 attached through PEG4-mal linker; attachment residues not stated; 3.5-4 maytansinoid molecules per antibody
notes: heavy chain version as for huCD37-3, see its note
With B3, the Kd in test [1] was found to be 350 pM. Moreover, in test [2], the “EC50 of in vitro cytotoxicity, BJAB cells” value amounted to 10 pM; the “EC50 of in vitro cytotoxicity, Daudi cells” value is 18 pM; the “EC50 of in vitro cytotoxicity, Granta-519 cells” value amounted to 12 pM; the “EC50 of in vitro cytotoxicity, Namalwa cells” value is 24 pM. Further, in test [2], the “EC50 of in vitro cytotoxicity, Raji cells” value amounted to 45 pM; the “EC50 of in vitro cytotoxicity, Raji-VCR cells” value is 37 pM; the “EC50 of in vitro cytotoxicity, Ramos cells” value was 69 pM; the “EC50 of in vitro cytotoxicity, SU-DHL-4 cells” value was found to be 24 pM.

B4: huCD37-50-SMCC-DM1 (antibody, human IgG1, kappa, V domains shown)
VH: QVQLQESGPGLLKPSQSLSLTCTVSGYSITSGFAWHWIRQHPGNKLEWMGYILYSGSTVYSPSLKSRISITRDTSKNHFFLQLNSVTAADTATYYCARGYYGYGAWFAYWGQGTLVTVSA
VL: EIVLTQSPATMSASPGERVTMTCSATSSVTYMHWYQQKPGQSPKRWIYDTSNLPYGVPARFSGSGSGTSYSLTISSMEAEDAATYYCQQWSDNPPTFGQGTKLEIKR
modifications: DM1 attached through SMCC linker; attachment residues and load not stated
notes: SMCC-DM1 conjugate of huCD37-50
In the case of B4, the Kd in test [1] is 700 pM. Further, in test [2], the “EC50 … WST-8 assay, Daudi cells” value was determined as 130 pM and the “EC50 of in vitro cytotoxicity, WST-8 assay, Granta-519 cells” value is 120 pM.

B5: huCD37-51-SMCC-DM1 (antibody, human IgG1, kappa, V domains shown)
VH: EVQLVESGPEVLKPGESLSLTCTVSGYSISSGFAWHWIRQFPGKGLEWMGYIHYSGSTNYSPSLQGRISITRDSSINQFFLQLNSVTASDTATYYCARGYYGFGAWFVYWGQGTLVTVSA
VL: B4 VL with N52K, P54A, Y55S, D92S
modifications: DM1 attached through SMCC linker; attachment residues and load not stated
notes: SMCC-DM1 conjugate of huCD37-51
On to B5, for which the Kd in test [1] amounted to 1600 pM. In test [2], the “EC50 … WST-8 assay, Daudi cells” value is 200 pM and the “EC50 of in vitro cytotoxicity, WST-8 assay, Granta-519 cells” value is 250 pM.

B6: huCD37-51 (antibody, human IgG1, kappa, V domains shown)
VH: B5 VH
VL: B4 VL with N52K, P54A, Y55S, D92S
notes: Humanized antibody
In the case of B6, the Kd in test [3] was found to be 800 pM; in test [4], 14000 pM; in test [1], 2000 pM.

B7: huCD37-50-PEG4-mal-DM1 (antibody, human IgG1, kappa, V domains shown)
VH: B4 VH
VL: B4 VL
modifications: DM1 attached through PEG4-mal linker; attachment residues and load not stated
notes: PEG4-mal-DM1 conjugate of huCD37-50
As for B7, in test [1], the Kd came out at 1100 pM.

B8: huCD37-50 (antibody, human IgG1, kappa, V domains shown)
VH: B4 VH
VL: B4 VL
notes: Resurfaced (humanized) antibody
Regarding B8, the Kd was 200 pM in test [3]; 1800 pM in test [4]; 430 pM and 680 pM in test [1].

B9: huCD37-57 (antibody, human IgG1, kappa, V domains shown)
VH: B4 VH with H41F, N44K, K45G, H78Q
VL: B4 VL with K44R, P54A, Y55S
notes: Humanized antibody
As to B9, the Kd came to 2000 pM in test [4] and 300 pM in test [1].

B10: huCD37-57-SMCC-DM1 (antibody, human IgG1, kappa, V domains shown)
VH: B4 VH with H41F, N44K, K45G, H78Q
VL: B4 VL with K44R, P54A, Y55S
modifications: DM1 attached through SMCC linker; attachment residues and load not stated
notes: SMCC-DM1 conjugate of huCD37-57
As for B10, the Kd in test [1] was 340 pM. In addition, in test [2], the “EC50 … WST-8 assay, Daudi cells” value came out at 350 pM.
